Where two headings read alike, the source gives them in different places.
Experiments:
mouse CD40 = molecular target: T1, mouse CD40 (mouse, UniProt P27512 24-193, limits assumed); experiment: SPR (Biacore T200), receptor on CM5 chip
T1 construct: Amine-coupled to a CM5 chip
T1 sequence (looked up): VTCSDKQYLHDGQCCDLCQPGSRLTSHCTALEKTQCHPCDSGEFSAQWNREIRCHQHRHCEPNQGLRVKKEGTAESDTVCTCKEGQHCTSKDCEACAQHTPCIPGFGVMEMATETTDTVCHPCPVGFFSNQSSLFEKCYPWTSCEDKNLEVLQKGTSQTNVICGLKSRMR

mouse NGFR = molecular target: T2, mouse NGFR (mouse, UniProt Q9Z0W1 32-254, limits assumed); experiment: SPR (Biacore T200), receptor on CM5 chip
T2 construct: Amine-coupled to a CM5 chip
T2 sequence (looked up): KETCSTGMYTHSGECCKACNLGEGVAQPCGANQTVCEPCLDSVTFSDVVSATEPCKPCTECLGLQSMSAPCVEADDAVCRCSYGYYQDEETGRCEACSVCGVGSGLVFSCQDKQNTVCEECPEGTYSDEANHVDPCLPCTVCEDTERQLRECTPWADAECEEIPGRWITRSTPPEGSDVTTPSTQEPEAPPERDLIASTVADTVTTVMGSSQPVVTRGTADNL

mouse TNFRI = molecular target: T3, mouse TNFRI (mouse, UniProt P25118 22-212, limits assumed); experiment: SPR (Biacore T200), receptor on CM5 chip
T3 construct: Amine-coupled to a CM5 chip
T3 sequence (looked up): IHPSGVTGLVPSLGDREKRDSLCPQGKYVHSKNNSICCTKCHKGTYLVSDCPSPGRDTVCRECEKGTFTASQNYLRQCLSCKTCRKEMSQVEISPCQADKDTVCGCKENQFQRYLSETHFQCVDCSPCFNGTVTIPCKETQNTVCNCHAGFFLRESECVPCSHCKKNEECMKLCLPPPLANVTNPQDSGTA

mouse CD137 = molecular target: T4, mouse CD137 (mouse, UniProt P20334 24-187, limits assumed); experiment: SPR (Biacore T200), receptor on CM5 chip
T4 construct: Amine-coupled to a CM5 chip; also called 4-1BB
T4 sequence (looked up): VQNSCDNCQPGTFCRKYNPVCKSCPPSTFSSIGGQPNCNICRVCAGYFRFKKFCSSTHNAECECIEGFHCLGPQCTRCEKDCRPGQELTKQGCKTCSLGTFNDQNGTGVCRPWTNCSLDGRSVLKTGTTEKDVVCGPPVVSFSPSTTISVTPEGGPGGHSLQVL

mouse TNFRII = molecular target: T5, mouse TNFRII (mouse, UniProt P25119 23-258, limits assumed); experiment: SPR (Biacore T200), receptor on CM5 chip
T5 construct: Amine-coupled to a CM5 chip
T5 sequence (looked up): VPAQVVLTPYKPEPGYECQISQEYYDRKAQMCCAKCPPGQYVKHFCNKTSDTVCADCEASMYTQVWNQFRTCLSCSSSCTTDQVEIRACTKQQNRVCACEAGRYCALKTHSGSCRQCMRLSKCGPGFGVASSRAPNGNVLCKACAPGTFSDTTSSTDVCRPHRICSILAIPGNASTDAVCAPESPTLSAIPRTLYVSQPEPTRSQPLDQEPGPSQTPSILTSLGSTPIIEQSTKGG

[1] = molecular target: T6, mouse OX40 receptor, cell-expressed (DO11.10-mOX40) (mouse, UniProt P47741 20-272); experiment: flow cytometry on DO11.10-mOX40 cells
T6 sequence: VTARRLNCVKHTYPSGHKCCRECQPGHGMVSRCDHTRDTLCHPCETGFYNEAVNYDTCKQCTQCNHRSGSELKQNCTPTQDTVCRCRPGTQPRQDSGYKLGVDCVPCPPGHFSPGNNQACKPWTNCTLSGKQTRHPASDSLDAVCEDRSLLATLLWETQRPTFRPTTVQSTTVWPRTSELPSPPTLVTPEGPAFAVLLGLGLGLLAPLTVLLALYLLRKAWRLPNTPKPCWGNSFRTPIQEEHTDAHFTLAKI
Method: Non-specific binding was also assessed by testing for binding to HEK cells not expressing OX40 by flow cytometry.
DO11.10 mOX40 or HEK cell suspensions were prepared in PBS+2% BSA (Sigma, A7906) and seeded at 4×10⁶ cell/ml with 50 μl/well in V-bottomed 96-well plates (Costar, 3897). […] The data was fit using log (agonist) vs response in GraphPad Prism Software.

[2] = molecular target: T6, mouse OX40 receptor, cell-expressed …; experiment: cell-based or functional assay
[3] = molecular target: T6, mouse OX40 receptor, cell-expressed …; experiment: cell-based or functional assay; remark: listed apart in the source
[4] = molecular target: T6, mouse OX40 receptor, cell-expressed …; experiment: flow cytometry, labelled antibody on DO11.10-mOX40 cells
[5] = molecular target: T6, mouse OX40 receptor, cell-expressed …; experiment: cell-based or functional assay; remark: listed apart in the source
[6] = molecular target: T6, mouse OX40 receptor, cell-expressed …; experiment: cell-based or functional assay; remark: listed apart in the source

B1: FS20m-232-91AA/HEL D1.3 (bispecific antibody, human IgG1, kappa, L234A L235A, V domains shown)
VH: QVQLQESGPGLVRPSQTLSLTCTVSGSTFSGYGVNWVRQPPGRGLEWIGMIWGDGNTDYNSALKSRVTMLVDTSKNQFSLRLSSVTAADTAVYYCARERDYRLDYWGQGSLVTVSS
VL: DIQMTQSPASLSASVGETVTITCRASGNIHNYLAWYQQKQGKSPQLLVYNAKTLADGVPSRFSGSGSGTQYSLKINSLQPEDFGSYYCQHFWSTPRTFGGGTKLEIKR
notes: Human IgG1 with anti-HEL D1.3 Fab and LALA; also called FS20m-232-91 in mock (HEL D1.3 LALA) mAb^2 format; FS20m-232-91/HelD1.3 mock mAb^2 with LALA mutation
- binding result (mouse CD40): no binding (tested: 1 µM)
- binding result (mouse NGFR): no binding (tested: 1 µM)
- binding result (mouse TNFRI): no binding (tested: 1 µM)
- binding result (mouse CD137): no binding (tested: 1 µM)
- binding result (mouse TNFRII): no binding (tested: 1 µM)

B2: G1AA/OX86 (antibody, human IgG1, kappa, L234A L235A, V domains shown)
VH: QVQLKESGPGLVQPSQTLSLTCTVSGFSLTGYNLHWVRQPPGKGLEWMGRMRYDGDTYYNSVLKSRLSISRDTSKNQVFLKMNSLQTDDTAIYYCTRDGRGDSFDYWGQGVMVTVSS
VL: DIVMTQGALPNPVPSGESASITCRSSQSLVYKDGQTYLNWFLQRPGQSPQLLTYWMSTRASGVSDRFSGSGSGTYFTLKISRVRAEDAGVYYCQQVREYPFTFGSGTKLEIKR
notes: also called anti-mouse OX40 mAb OX86 in a human IgG1 backbone with the LALA mutation
- EC50 [1]: 3100 pM
- EC50 of IL-2 release, crosslinked (anti-human CH2 mAb) [2]: 1750 pM
- EC50 of IL-2 release, Xlink (anti-hCH2) [3]: 463 pM

B3: antibody OX86 (Biolegend cat no 119408) (antibody, V domains shown)
VH: B2 VH
VL: DIVMTQGALPNPVPSGESASITCRSSQSLVYKDGQTYLNWFLQRPGQSPQLLTYWMSTRASGVSDRFSGSGSGTYFTLKISRVRAEDAGVYYCQQVREYPFTFGSGTKLEIK
- fluorescence over non-transduced cells [4]: ≥ 10 fold

B4: FS20m-232-91AA/4420 (bispecific antibody, human IgG1, kappa, L234A L235A)
heavy: EVKLDETGGGLVQPGRPMKLSCVASGFTFSDYWMNWVRQSPEKGLEWVAQIRNKPYNYETYYSDSVKGRFTISRDDSKSSVYLQMNNLRVEDMGIYYCTGSYYGMDYWGQGTSVTVSSASTKGPSVFPLAPSSKSTSGGTAALGCLVKDYFPEPVTVSWNSGALTSGVHTFPAVLQSSGLYSLSSVVTVPSSSLGTQTYICNVNHKPSNTKVDKKVEPKSCDKTHTCPPCPAPEAAGGPSVFLFPPKPKDTLMISRTPEVTCVVVDVSHEDPEVKFNWYVDGVEVHNAKTKPREEQYNSTYRVVSVLTVLHQDWLNGKEYKCKVSNKALPAPIEKTISKAKGQPREPQVYTLPPSRDELFDPMYYYNQVSLTCLVKGFYPSDIAVEWESNGEPLWDYKTTPPVLDSDGSFFLYSKLTVWRDRWEDGNVFSCSVMHEALHNHYTQKSLSLSPG
light: DVVMTQTPLSLPVSLGDQASISCRSSQSLVHSNGNTYLRWYLQKPGQSPKVLIYKVSNRFSGVPDRFSGSGSGTDFTLKISRVEAEDLGVYFCSQSTHVPWTFGGGTKLEIKRTVAAPSVFIFPPSDEQLKSGTASVVCLLNNFYPREAKVQWKVDNALQSGNSQESVTEQDSKDSTYSLSSTLTLSKADYEKHKVYACEVTHQGLSSPVTKSFNRGEC
notes: Human IgG1 with anti-FITC 4420 Fab and LALA; The mouse OX40 site is in the CH3 domain; also called mFS20-232-91AA/4420; anti-mouse OX40 Fcab FS20m-232-91 in mock (4420 LALA) mAb^2 format
- EC50 of IL-2 release, HPAC cells present, + FITCdex [5]: 548 pM
- EC50 of IL-2 release, HPAC cells present, + G1/E2A + a-hFc + FITCdex [5]: 2090 pM
- EC50 [1]: 1010 pM
- EC50 of IL-2 release, Xlink (FITC-dextran) [6]: 629 pM
- EC50 of IL-2 release, crosslinked (FITC-dextran) [2]: 670 pM
- EC50 of IL-2 release, Xlink (FITC-dextran) [3]: 158 pM
- EC50 of IL-2 release, no crosslinker [3]: 76400 pM

— patent publication US20250361312A1 (INVOX PHARMA, published 2025)
